Measured values taken from paper PMC2918618, “Characterization of the TnsD-attTn7 complex that promotes site-specific insertion of Tn7” (Mobile DNA, 2010).

Legend:
Experiment in all cases: EMSA; Gel-shift buffer not given (as described in ref. 6); TnsD stored in 500 mM KCl, 50 mM Tris-HCl pH 8.0, 1 mM EDTA, 2 mM DTT, 25% glycerol
Details in all cases: protein: recombinant
[1] = molecular target: T1, TnsD 1-498 (Escherichia coli (transposon Tn7), UniProt P13991 1-498)
T1 sequence: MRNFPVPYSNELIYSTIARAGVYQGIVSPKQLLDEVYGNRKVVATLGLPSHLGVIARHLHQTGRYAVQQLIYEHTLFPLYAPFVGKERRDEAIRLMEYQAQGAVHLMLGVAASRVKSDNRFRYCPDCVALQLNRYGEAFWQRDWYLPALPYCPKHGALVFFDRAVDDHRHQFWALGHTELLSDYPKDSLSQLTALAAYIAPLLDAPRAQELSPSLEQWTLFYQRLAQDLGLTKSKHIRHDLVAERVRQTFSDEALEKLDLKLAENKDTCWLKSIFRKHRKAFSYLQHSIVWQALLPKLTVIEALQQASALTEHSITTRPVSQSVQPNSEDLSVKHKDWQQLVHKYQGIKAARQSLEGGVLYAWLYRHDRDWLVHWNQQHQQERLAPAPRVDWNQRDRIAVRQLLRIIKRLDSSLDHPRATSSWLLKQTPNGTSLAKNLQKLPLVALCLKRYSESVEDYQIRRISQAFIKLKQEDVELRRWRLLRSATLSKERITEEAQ

[2] = molecular target: T2, TnsD 1-399 (Escherichia coli (transposon Tn7), UniProt P13991 1-399)
T2 sequence: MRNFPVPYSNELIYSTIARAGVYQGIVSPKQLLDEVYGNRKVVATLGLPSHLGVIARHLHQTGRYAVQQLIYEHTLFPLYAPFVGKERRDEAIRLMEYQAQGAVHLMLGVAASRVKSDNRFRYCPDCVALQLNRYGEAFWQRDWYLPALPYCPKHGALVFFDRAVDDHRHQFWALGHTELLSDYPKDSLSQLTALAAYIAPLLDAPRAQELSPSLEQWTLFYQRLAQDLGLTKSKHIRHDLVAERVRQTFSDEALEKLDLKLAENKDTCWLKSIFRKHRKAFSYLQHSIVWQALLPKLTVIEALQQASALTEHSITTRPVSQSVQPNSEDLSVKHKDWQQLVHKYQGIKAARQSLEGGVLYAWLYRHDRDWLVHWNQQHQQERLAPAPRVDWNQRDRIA

[3] = molecular target: T3, TnsD 1-350 (Escherichia coli (transposon Tn7), UniProt P13991 1-350)
T3 sequence: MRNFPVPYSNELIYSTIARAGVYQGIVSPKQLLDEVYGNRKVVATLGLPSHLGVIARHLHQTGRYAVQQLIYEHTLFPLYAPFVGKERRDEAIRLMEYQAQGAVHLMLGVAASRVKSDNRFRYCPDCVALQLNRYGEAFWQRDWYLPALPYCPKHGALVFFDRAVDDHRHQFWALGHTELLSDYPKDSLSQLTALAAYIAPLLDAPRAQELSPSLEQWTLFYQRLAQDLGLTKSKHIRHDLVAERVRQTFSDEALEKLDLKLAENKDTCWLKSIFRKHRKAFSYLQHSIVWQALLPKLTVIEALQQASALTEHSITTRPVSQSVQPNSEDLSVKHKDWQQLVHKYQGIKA

[4] = molecular target: T4, TnsD 1-480 (Escherichia coli (transposon Tn7), UniProt P13991 1-480)
T4 sequence: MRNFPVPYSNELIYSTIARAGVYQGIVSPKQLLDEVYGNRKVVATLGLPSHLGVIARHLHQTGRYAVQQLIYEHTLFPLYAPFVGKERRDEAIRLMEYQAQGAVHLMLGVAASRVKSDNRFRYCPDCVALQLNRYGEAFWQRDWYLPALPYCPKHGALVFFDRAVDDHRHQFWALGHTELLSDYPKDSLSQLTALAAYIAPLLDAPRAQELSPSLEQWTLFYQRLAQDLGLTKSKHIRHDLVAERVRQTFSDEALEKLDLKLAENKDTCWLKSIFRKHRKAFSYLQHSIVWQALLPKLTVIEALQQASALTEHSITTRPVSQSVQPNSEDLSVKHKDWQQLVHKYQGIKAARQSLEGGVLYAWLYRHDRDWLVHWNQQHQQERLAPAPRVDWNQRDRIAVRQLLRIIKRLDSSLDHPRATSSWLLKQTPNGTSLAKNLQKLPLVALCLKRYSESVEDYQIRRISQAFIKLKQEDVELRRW

[5] = molecular target: T5, TnsD 1-490 (Escherichia coli (transposon Tn7), UniProt P13991 1-490)
T5 sequence: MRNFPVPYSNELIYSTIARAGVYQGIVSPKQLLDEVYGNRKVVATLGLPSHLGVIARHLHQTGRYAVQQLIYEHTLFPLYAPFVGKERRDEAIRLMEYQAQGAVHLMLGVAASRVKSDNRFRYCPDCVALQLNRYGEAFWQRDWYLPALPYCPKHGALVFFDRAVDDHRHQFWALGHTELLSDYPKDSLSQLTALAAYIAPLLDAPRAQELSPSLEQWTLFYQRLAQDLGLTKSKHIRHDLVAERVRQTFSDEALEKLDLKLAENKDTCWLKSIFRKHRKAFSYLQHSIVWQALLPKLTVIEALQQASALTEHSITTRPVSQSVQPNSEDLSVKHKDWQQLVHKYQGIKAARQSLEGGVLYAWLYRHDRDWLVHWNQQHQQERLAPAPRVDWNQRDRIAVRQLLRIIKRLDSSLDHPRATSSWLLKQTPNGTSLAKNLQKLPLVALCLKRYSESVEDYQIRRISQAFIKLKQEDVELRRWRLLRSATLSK

Measured: binding result

B1: attTn7 wt (+23 to +58) (dsDNA)
DNA 1: CCGCGTAACCTGGCAAAATCGGTTACGGTTGAGTAA
DNA 2: TTACTCAACCGTAACCGATTTTGCCAGGTTACGCGG
no binding: all assays above
